The results in this text go back to patent US20190015483A1 (CSL BEHRING RECOMBINANT FACILITY, published 2019).

What is called Kd is a measure of binding affinity in units of concentration. Broadly, the koff is a measure of how fast the partners let go of each other. For orientation: kon means the rate constant with which the complex forms.

B1: Hu-vWF[764-1270]-8His S766W-S806G (other)
chain: SLWCRPPMVKLVCPADNLRAEGLECTKTCQNYDLECMSMGCVGGCLCPPGMVRHENRCVALERCPCFHQGKEYAPGETVKIGCNTCVCRDRKWNCTDHVCDATCSTIGMAHYLTFDGLKYLFPGECQYVLVQDYCGSNPGTFRILVGNKGCSHPSVKCKKRVTILVEGGEIELFDGEVNVKRPMKDETHFEVVESGRYIILLLGKALSVVWDRHLSISVVLKQTYQEKVCGLCGNFDGIQNNDLTSSNLQVEEDPVDFGNSWKVSSQCADTRKVPLDSSPATCHNNIMKQTMVDSSCRILTSDVFQDCNKLVDPEPYLDVCIYDTCSCESIGDCACFCDTIAAYAHVCAQHGKVVTWRTATLCPQSCEERNLRENGYECEWRYNSCAPACQVTCQHPEPLACPVQCVEGCHAHCPPGKILDELLQTCVDPEDCPVCEVAGRRFASGKKVTLNPSDPEHCQICHCDVVNLTCEACQEPGGLVVPPTDAPVSPTTLYVEDISEPPLHDFHHHHHHHH
B2: Hu-vWF[764-1270]-8His S766W-S806P (other)
chain: SLWCRPPMVKLVCPADNLRAEGLECTKTCQNYDLECMSMGCVPGCLCPPGMVRHENRCVALERCPCFHQGKEYAPGETVKIGCNTCVCRDRKWNCTDHVCDATCSTIGMAHYLTFDGLKYLFPGECQYVLVQDYCGSNPGTFRILVGNKGCSHPSVKCKKRVTILVEGGEIELFDGEVNVKRPMKDETHFEVVESGRYIILLLGKALSVVWDRHLSISVVLKQTYQEKVCGLCGNFDGIQNNDLTSSNLQVEEDPVDFGNSWKVSSQCADTRKVPLDSSPATCHNNIMKQTMVDSSCRILTSDVFQDCNKLVDPEPYLDVCIYDTCSCESIGDCACFCDTIAAYAHVCAQHGKVVTWRTATLCPQSCEERNLRENGYECEWRYNSCAPACQVTCQHPEPLACPVQCVEGCHAHCPPGKILDELLQTCVDPEDCPVCEVAGRRFASGKKVTLNPSDPEHCQICHCDVVNLTCEACQEPGGLVVPPTDAPVSPTTLYVEDISEPPLHDFHHHHHHHH
B3: Hu-vWF[764-1270]-8His S766W-S806L (other)
chain: SLWCRPPMVKLVCPADNLRAEGLECTKTCQNYDLECMSMGCVLGCLCPPGMVRHENRCVALERCPCFHQGKEYAPGETVKIGCNTCVCRDRKWNCTDHVCDATCSTIGMAHYLTFDGLKYLFPGECQYVLVQDYCGSNPGTFRILVGNKGCSHPSVKCKKRVTILVEGGEIELFDGEVNVKRPMKDETHFEVVESGRYIILLLGKALSVVWDRHLSISVVLKQTYQEKVCGLCGNFDGIQNNDLTSSNLQVEEDPVDFGNSWKVSSQCADTRKVPLDSSPATCHNNIMKQTMVDSSCRILTSDVFQDCNKLVDPEPYLDVCIYDTCSCESIGDCACFCDTIAAYAHVCAQHGKVVTWRTATLCPQSCEERNLRENGYECEWRYNSCAPACQVTCQHPEPLACPVQCVEGCHAHCPPGKILDELLQTCVDPEDCPVCEVAGRRFASGKKVTLNPSDPEHCQICHCDVVNLTCEACQEPGGLVVPPTDAPVSPTTLYVEDISEPPLHDFHHHHHHHH
B4: Hu-vWF[764-1270]-8His S766W-S806H (other)
chain: SLWCRPPMVKLVCPADNLRAEGLECTKTCQNYDLECMSMGCVHGCLCPPGMVRHENRCVALERCPCFHQGKEYAPGETVKIGCNTCVCRDRKWNCTDHVCDATCSTIGMAHYLTFDGLKYLFPGECQYVLVQDYCGSNPGTFRILVGNKGCSHPSVKCKKRVTILVEGGEIELFDGEVNVKRPMKDETHFEVVESGRYIILLLGKALSVVWDRHLSISVVLKQTYQEKVCGLCGNFDGIQNNDLTSSNLQVEEDPVDFGNSWKVSSQCADTRKVPLDSSPATCHNNIMKQTMVDSSCRILTSDVFQDCNKLVDPEPYLDVCIYDTCSCESIGDCACFCDTIAAYAHVCAQHGKVVTWRTATLCPQSCEERNLRENGYECEWRYNSCAPACQVTCQHPEPLACPVQCVEGCHAHCPPGKILDELLQTCVDPEDCPVCEVAGRRFASGKKVTLNPSDPEHCQICHCDVVNLTCEACQEPGGLVVPPTDAPVSPTTLYVEDISEPPLHDFHHHHHHHH
B5: Hu-vWF[764-1270]-8His S766W-S806I (other)
chain: SLWCRPPMVKLVCPADNLRAEGLECTKTCQNYDLECMSMGCVIGCLCPPGMVRHENRCVALERCPCFHQGKEYAPGETVKIGCNTCVCRDRKWNCTDHVCDATCSTIGMAHYLTFDGLKYLFPGECQYVLVQDYCGSNPGTFRILVGNKGCSHPSVKCKKRVTILVEGGEIELFDGEVNVKRPMKDETHFEVVESGRYIILLLGKALSVVWDRHLSISVVLKQTYQEKVCGLCGNFDGIQNNDLTSSNLQVEEDPVDFGNSWKVSSQCADTRKVPLDSSPATCHNNIMKQTMVDSSCRILTSDVFQDCNKLVDPEPYLDVCIYDTCSCESIGDCACFCDTIAAYAHVCAQHGKVVTWRTATLCPQSCEERNLRENGYECEWRYNSCAPACQVTCQHPEPLACPVQCVEGCHAHCPPGKILDELLQTCVDPEDCPVCEVAGRRFASGKKVTLNPSDPEHCQICHCDVVNLTCEACQEPGGLVVPPTDAPVSPTTLYVEDISEPPLHDFHHHHHHHH
B6: Hu-vWF[764-1270]-8His S766W-S806M (other)
chain: SLWCRPPMVKLVCPADNLRAEGLECTKTCQNYDLECMSMGCVMGCLCPPGMVRHENRCVALERCPCFHQGKEYAPGETVKIGCNTCVCRDRKWNCTDHVCDATCSTIGMAHYLTFDGLKYLFPGECQYVLVQDYCGSNPGTFRILVGNKGCSHPSVKCKKRVTILVEGGEIELFDGEVNVKRPMKDETHFEVVESGRYIILLLGKALSVVWDRHLSISVVLKQTYQEKVCGLCGNFDGIQNNDLTSSNLQVEEDPVDFGNSWKVSSQCADTRKVPLDSSPATCHNNIMKQTMVDSSCRILTSDVFQDCNKLVDPEPYLDVCIYDTCSCESIGDCACFCDTIAAYAHVCAQHGKVVTWRTATLCPQSCEERNLRENGYECEWRYNSCAPACQVTCQHPEPLACPVQCVEGCHAHCPPGKILDELLQTCVDPEDCPVCEVAGRRFASGKKVTLNPSDPEHCQICHCDVVNLTCEACQEPGGLVVPPTDAPVSPTTLYVEDISEPPLHDFHHHHHHHH
B7: Hu-vWF[764-1270]-8His S766W-S806N (other)
chain: SLWCRPPMVKLVCPADNLRAEGLECTKTCQNYDLECMSMGCVNGCLCPPGMVRHENRCVALERCPCFHQGKEYAPGETVKIGCNTCVCRDRKWNCTDHVCDATCSTIGMAHYLTFDGLKYLFPGECQYVLVQDYCGSNPGTFRILVGNKGCSHPSVKCKKRVTILVEGGEIELFDGEVNVKRPMKDETHFEVVESGRYIILLLGKALSVVWDRHLSISVVLKQTYQEKVCGLCGNFDGIQNNDLTSSNLQVEEDPVDFGNSWKVSSQCADTRKVPLDSSPATCHNNIMKQTMVDSSCRILTSDVFQDCNKLVDPEPYLDVCIYDTCSCESIGDCACFCDTIAAYAHVCAQHGKVVTWRTATLCPQSCEERNLRENGYECEWRYNSCAPACQVTCQHPEPLACPVQCVEGCHAHCPPGKILDELLQTCVDPEDCPVCEVAGRRFASGKKVTLNPSDPEHCQICHCDVVNLTCEACQEPGGLVVPPTDAPVSPTTLYVEDISEPPLHDFHHHHHHHH

The target of this assay is T1, recombinant Factor VIII (CSL627, rVIII-SingleChain) (Homo sapiens (Human), UniProt P00451 20-2351).
T1 construct: also called FVIII
T1 sequence: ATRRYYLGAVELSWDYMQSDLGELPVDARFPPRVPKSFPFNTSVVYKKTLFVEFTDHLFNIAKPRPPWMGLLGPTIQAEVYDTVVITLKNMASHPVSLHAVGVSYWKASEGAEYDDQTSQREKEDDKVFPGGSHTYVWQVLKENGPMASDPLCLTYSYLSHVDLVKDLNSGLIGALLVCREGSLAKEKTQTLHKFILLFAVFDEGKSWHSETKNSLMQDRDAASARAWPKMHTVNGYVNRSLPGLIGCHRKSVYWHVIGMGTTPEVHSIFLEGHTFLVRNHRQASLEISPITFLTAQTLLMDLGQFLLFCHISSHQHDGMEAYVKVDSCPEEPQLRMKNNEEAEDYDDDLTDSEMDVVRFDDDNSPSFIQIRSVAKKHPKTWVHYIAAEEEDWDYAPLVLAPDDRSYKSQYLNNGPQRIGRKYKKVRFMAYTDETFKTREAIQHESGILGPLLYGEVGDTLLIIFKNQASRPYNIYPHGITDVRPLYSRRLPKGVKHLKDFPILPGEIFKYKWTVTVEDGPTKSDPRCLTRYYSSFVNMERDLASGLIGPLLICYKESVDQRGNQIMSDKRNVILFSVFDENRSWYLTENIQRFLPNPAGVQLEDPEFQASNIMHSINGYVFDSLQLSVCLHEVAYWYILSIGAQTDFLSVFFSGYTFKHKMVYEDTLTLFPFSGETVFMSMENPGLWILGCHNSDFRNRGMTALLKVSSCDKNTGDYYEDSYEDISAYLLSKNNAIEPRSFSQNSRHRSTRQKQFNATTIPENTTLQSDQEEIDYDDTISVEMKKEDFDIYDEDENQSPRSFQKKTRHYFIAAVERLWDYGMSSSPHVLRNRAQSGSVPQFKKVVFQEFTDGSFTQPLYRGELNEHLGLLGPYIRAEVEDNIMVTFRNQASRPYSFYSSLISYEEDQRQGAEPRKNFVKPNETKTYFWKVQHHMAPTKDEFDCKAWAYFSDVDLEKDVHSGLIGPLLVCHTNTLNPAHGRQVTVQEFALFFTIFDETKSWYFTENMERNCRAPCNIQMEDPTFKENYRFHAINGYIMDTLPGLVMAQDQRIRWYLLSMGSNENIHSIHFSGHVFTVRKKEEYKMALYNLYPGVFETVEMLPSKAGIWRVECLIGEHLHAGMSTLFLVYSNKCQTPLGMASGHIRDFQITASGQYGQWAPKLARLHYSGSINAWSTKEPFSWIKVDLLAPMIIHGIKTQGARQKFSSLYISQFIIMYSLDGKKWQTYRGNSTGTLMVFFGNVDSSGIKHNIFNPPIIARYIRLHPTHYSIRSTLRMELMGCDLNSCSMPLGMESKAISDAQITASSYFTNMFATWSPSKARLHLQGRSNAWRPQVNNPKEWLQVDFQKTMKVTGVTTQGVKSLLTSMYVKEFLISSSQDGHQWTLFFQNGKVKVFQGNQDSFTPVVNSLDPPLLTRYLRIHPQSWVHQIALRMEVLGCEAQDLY
Nature of the assay: SPR, anti-His capture, FVIII injected, 37 C. In outline: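 Capture 40-150 RU mutant from medium on anti-His (14,000 RU) CM-5; 1 nM FVIII, 5 min on / 5 min off; reference spot + blank subtracted; 1:1 fit.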
For B1, the Kd amounted to 0.245 nM, the koff was 0.00134 s⁻¹ and the kon is 5.46e+06 M⁻¹ s⁻¹.

Regarding B2, the Kd came out at 0.133 nM, the koff is 0.000566 s⁻¹ and the kon was 4.26e+06 M⁻¹ s⁻¹.

B3: the binding result is “no binding”.

Take B4: the dissociation constant (Kd) is 0.093 nM, the koff turned out to be 0.000828 s⁻¹ and the on-rate constant (kon) came to 8.9e+06 M⁻¹ s⁻¹.

For the molecule B5, the dissociation constant (Kd) turned out to be 0.283 nM, the dissociation rate constant (koff) came out at 0.000447 s⁻¹ and the kon turned out to be 1.58e+06 M⁻¹ s⁻¹.

Take B6: the Kd worked out at 0.425 nM, the koff came out at 0.000872 s⁻¹ and the association rate constant (kon) was found to be 2.05e+06 M⁻¹ s⁻¹.

On to B7, for which the dissociation constant (Kd) stood at 0.152 nM, the koff is 0.000585 s⁻¹ and the kon is 3.84e+06 M⁻¹ s⁻¹.
